Data from patent US11994512B2, “Single-cell genomic methods to generate ex vivo cell systems that recapitulate in vivo biology with improved fidelity” (Massachusetts Institute of Technology, priority 2018, dated 2024).

Tested on: intracellular proteome of ENR+CD and ENR organoids
Test: LC-MS/MS TMT proteomics of ENR+CD versus ENR organoids
Type: cell-based, C57BL/6 mice
Details: for Average logFC / M1-1 Log2 Median Normalized / M1-2 Log2 Median Normalized / M2-1 Log2 Median Normalized / M2-2 Log2 Median Normalized: protein abundance, ENR+CD versus ENR organoids; for Average logFC: aggregate of the four sample pairs; for M1-1 Log2 Median Normalized: replicate M1-1; for M1-1 Log2 Median Normalized / M1-2 Log2 Median Normalized / M2-1 Log2 Median Normalized / M2-2 Log2 Median Normalized: log2 ratio; for M1-2 Log2 Median Normalized: replicate M1-2; for M2-1 Log2 Median Normalized: replicate M2-1; for M2-2 Log2 Median Normalized: replicate M2-2; for change: up = enriched in ENR+CD, down = enriched in ENR, FDR<0.05 and log fold change cut-off
Source text: Because PCs are highly secretory, protein-rich cells, Applicants sought to assess the total intracellular proteome between conditions through liquid chromatography mass spectrometry (LC-MS/MS)-based proteomics. Applicants quantified relative protein abundance across eight samples using isobaric mass tag labeling from four ENR and four ENR+CD samples (M1-1 through M2-2, first digit denotes biological donor, second digit denotes technical replicate) (FIG. 3A). Samples were processed and analyzed in a single 10-plex by LC-MS/MS (FIG. 9A).
To affirm the reproducibility of the associated proteins in the ENR+CD-enriched proteome, Applicants performed relative quantification within differentiation sets.
Mass spectrometry proteomics sample preparation, sequencing, and quantification. Organoid cell pellets were isolated from Matrigel with mechanical dissociation and washed (cold PBS 5X) to remove residual extracellular protein. Proteins were extracted from cell pellets with 8 M urea (Sigma), reduced with 5 mM DTT (Thermo Fisher Pierce) for 45 minutes, alkylated with 10 mM IAA (Sigma) for 45 minutes in the dark, and double digested with both Lysyl Endopeptidase “LysC” (Wako) and trypsin (Promega) overnight at RT. A small aliquot of cellular lysate was removed from each sample for protein quantification via the Pierce™ BCA Protein Assay Kit (Pierce). After proteolytic digestion, the samples were quenched using formic acid to a final concentration of 1.0% and subsequently desalted on 10 mg OASIS HLB solid phase columns (Waters).
The peptides were labeled with TMT-10 isobaric mass tag reagent according to manufacturer's instructions (ThermoFisher Scientific). The peptides were labeled at a 1:8 ratio of peptide to TMT reagent, followed by 1-hour incubation at RT with bench top shaking at 850 rpm. After incubation, a […] of labeled tryptic peptide was removed from each labeled condition, desalted with C18 stage tips, and analyzed via LC-MS/MS using a Thermo Fisher Q Exactive Plus Hybrid Mass Spectrometer (QE-Plus) coupled to a Thermo Fisher EASY-nLC 1000 liquid chromatograph to ensure isobaric label incorporation >95%. An additional 1.0 μg of labeled tryptic peptide was removed from each channel, mixed together, desalted on a C18 stage tip, and analyzed via LC-MS to ensure equal relative protein loads. During these quality control steps, the labeled peptides were stored, unquenched at −80° C.

Molecule | Average logFC | M1-1 Log2 Median Normalized | M1-2 Log2 Median Normalized | M2-1 Log2 Median Normalized | M2-2 Log2 Median Normalized | change
O35943 (protein, UniProt O35943 1-207, looked up, full-length) MWAFGGRAAVGLLPRTASRASAWVGNPRWREPIVTCGRRGLHVTVNAGATRHAHLNLHYLQILNIKKQSVCVVHLRNLGTLDNPSSLDETAYERLAEETLDSLAEFFEDLADKPYTLEDYDVSFGDGVLTIKLGGDLGTYVINKQTPNKQIWLSSPSSGPKRYDWTGKNWVYSHDGVSLHELLARELTKALNTKLDLSSLAYSGKGT | −1.193 | −0.813 | −0.849 | −1.3945 | −1.715 | down
O70126 (protein, UniProt O70126 1-345, looked up, full-length) MAQKENAYPWPYGSKTSQSGLNTLSQRVLRKEPATTSALALVNRFNSQSTAAPGQKLAENKSQGSTASQGSQNKQPFTIDNFEIGRPLGKGKFGNVYLAREKKSRFIVALKILFKSQIEKEGVEHQLRREIEIQAHLKHPNILQLYNYFYDQQRIYLILEYAPRGELYKELQKSRTFDEQRTATIMEELSDALTYCHKKKVIHRDIKPENLLLGLQGELKIADFGWSVHAPSLRRKTMCGTLDYLPPEMIEGRMHNEMVDLWCIGVLCYELMVGNPPFESPSHSETYRRIVKVDLKFPSSVPSGAQDLISKLLKHNPWQRLPLAEVAAHPWVRANSRRVLPPSAL | −1.165 | −1.572 | −0.967 | −0.8395 | −1.281 | down
O35594 (protein, UniProt O35594 1-676, looked up, full-length) MSDQIKFIVDSLNKEPFKKNYNLITFDSLGPMQLLQVLNDVLAEIDPKQDVDIREEMPEQTAKRMLNLLGILKYKPPGNATDMSTFRQGLVIGSKPVIYPVLHWLLQRSNELKKRAYLARFLIKLEVPSEFLQDETVADTNKQYEELMEAFKTLHKECEQLKTSGFSTAEIRRDISAMEEEKDQLMKRVERLKKRVETVQNHQRMLKIARQLRVEKEREEFLAQQKQEQKNQLFHAVQRLQRVQNQLKSMRHAAADAKPESLMKRLEEEIKFNSYMVTEKFPKELESKKKELHFLQKVVSEPAMGHSDLLELETKVNEVNTEINQLIEKKMMRNEPIEGKLSLYRQQASIISRKKEAKAEELQETKEKLASLEREVLVKTNQTREFDGTEVLKGDEFKRYVSKLRSKSTVFKKKHQIIAEFKAEFGLLQRTEELLKQRQETIQHQLRTIEEKKGISGYSYTQEELERVSALKSEVDEMKGRTLDDMSEMVKKLNSLVSEKKSALAPVIKELRQLRQKCQELTQECDEKKAQYDSCAAGLESNRSKLEQEVRGLREECLQEESKYHYTNCMIKNLEVELRRATDEMKAYVSSDQQEKRKAIREQYTKNITEQENLGKKLREKQKAVRESHGPNMKQAKMWRDLEQLMECKKQCFLKQQSPASIGQVIQEGGEDRLVL | 1.151 | 0.817 | 1.152 | 1.1275 | 1.543 | up
O88513 (protein, UniProt O88513 1-206, looked up, full-length) MNLSMKQKQEGAQENVKNSPVPRRTLKMIQPSADGSLVGRENELPKGLFKRKLWDDQLASQTSSCGPEANENKDVGDLTQEAFDLISKENPSSQYWKEVAEQRRKALYEALKENEKLHKEIEQKDSEIARLRKENKDLAEVAEHVQYMAEVIERLSNEPLDNFESPDSQEFDSEEEAVEYSELEDSGAGTCAEETVSSSTDARPCT | −1.337 | −1.6 | −1.306 | −0.8435 | −1.599 | down
O88451 (protein, UniProt O88451 1-316, looked up, full-length) MWLYLVALVGLWTLLRFFRERQVVSHLQDKYVFITGCDSGFGNLLARQLDRRGMRVLAACLTEKGAEQLRNKTSDRLETVILDVTKTESIVAATQWVKERVGNRGLWGLVNNAGICVFAINEWLKKEDFANILDVNLLGMIEVTLSMLPLVRKARGRVVNISSSMGRVSLCGGGYCISKYGVEAFSDSLRREISYFGVKVAIIEPGGFRTNVSNYERLSHSIEKLWDQTSSEVKEVYDKNFLDSYIKAIQSLTDTCSDDLSVVTDCMEHALTACHPRTRYSAGWDAKLFYLPLSYMPTFLVDAMLYWSSVKPAQAL | −1.416 | −1.202 | −1.565 | −2.2355 | −0.662 | down
O88310 (protein, UniProt O88310 1-313, looked up, full-length) MTQLGFLLFIMVATRGCSAAEENLDTNRWGNSFFSSLPRSCKEIKQEHTKAQDGLYFLRTKNGVIYQTFCDMTTAGGGWTLVASVHENNMRGKCTVGDRWSSQQGNRADYPEGDGNWANYNTFGSAEAATSDDYKNPGYFDIQAENLGIWHVPNKSPLHNWRKSSLLRYRTFTGFLQHLGHNLFGLYKKYPVKYGEGKCWTDNGPALPVVYDFGDARKTASYYSPSGQREFTAGYVQFRVFNNERAASALCAGVRVTGCNTEHHCIGGGGFFPEGNPVQCGDFASFDWDGYGTHNGYSSSRKITEAAVLLFYR | 1.203 | 1.445 | 1.239 | 0.9545 | 1.175 | up
O88554 (protein, UniProt O88554 1-559, looked up, full-length) MAPRRQRSGSGRRVLNEAKKVDNGNKATEDDSPPGKKMRTCQRKGPMAGGKDADRTKDNRDSVKTLLLKGKAPVDPECAAKLGKAHVYCEGDDVYDVMLNQTNLQFNNNKYYLIQLLEDDAQRNFSVWMRWGRVGKTGQHSLVTCSGDLNKAKEIFQKKFLDKTKNNWEDRENFEKVPGKYDMLQMDYAASTQDESKTKEEETLKPESQLDLRVQELLKLICNVQTMEEMMIEMKYDTKRAPLGKLTVAQIKAGYQSLKKIEDCIRAGQHGRALVEACNEFYTRIPHDFGLSIPPVIRTEKELSDKVKLLEALGDIEIALKLVKSERQGLEHPLDQHYRNLHCALRPLDHESNEFKVISQYLQSTHAPTHKDYTMTLLDVFEVEKEGEKEAFREDLPNRMLLWHGSRLSNWVGILSHGLRVAPPEAPITGYMFGKGIYFADMSSKSANYCFASRLKNTGLLLLSEVALGQCNELLEANPKAQGLLRGKHSTKGMGKMAPSPAHFITLNGSTVPLGPASDTGILNPEGYTLNYNEFIVYSPNQVRMRYLLKIQFNFLQLW | −1.403 | −1.403 | −0.933 | −1.4925 | −1.465 | down
O35945 (protein, UniProt O35945 1-501, looked up, full-length) MSSPAQPAVPAPLANLKIQHTKIFINNEWHDSVSSKKFPVLNPATEEVICHVEEGDKADVDKAVKAARQAFQIGSPWRTMDASERGRLLNKLADLMERDRLLLATMESMNAGKVFAHAYLLDVEISIKALQYFAGWADKIHGQTIPSDGNIFTYTRREPIGVCGQIIPWNGPLIIFTWKLGPALSCGNTVVVKPAEQTPLTALHMASLIKEAGFPPGVVNIVPGYGPTAGGAISSHMDIDKVSFTGSTEVGKLIKEAAGKSNLKRVTLELGGKSPCIVFADADLDSAVEFAHQGVFFHQGQICVAASRLFVEESIYDEFVRRSVERAKKYILGNPLNSGINQGPQIDKEQHNKILGLIESGKKEGAKLECGGGRWGNKGFFVQPTVFSNVTDEMRIAKEEIFGPVQQIMKFKSMDDVIKRANNTTYGLAAGVFTKDLDKAITVSSALQAGMVWVNCYLAVPVQCPFGGFKMSGNGRELGEHGLYEYTELKTVAMQISQKNS | −1.329 | −1.241 | −1.721 | −1.8345 | −0.518 | down
O88803 (protein, UniProt O88803 1-151, looked up, full-length) MIPTTILISAALLSSALAGPWANICASKSSNEIRTCDSYGCGQYSAQRTQRHHPGVDVLCSDGSVVYAPFTGKIVGQEKPYRNKNAINDGIRLSGRGFCVKIFYIKPIKYKGSIKKGEKLGTLLPLQKIYPGIQSHVHVENCDSSDPTAYL | 1.443 | 1.692 | 1.063 | 1.4425 | 1.463 | up
